Assay results as given in US20180214548A1 (SHANGHAI YUNYI HEALTHCARE AND TECHNOLOGY, published 2018).

B1: chimeric anti-PD-1 antibody 204C5E12 (antibody, V domains shown)
VH: QVQLVESGGGVVQPGRSLRLSCAASGFSFSYYGMHWVRQAPGKGLEWVAVIWYDGSNKYYADSVKGRFTISRDNSKNTLYLQMNSLRAEDTAVYYCASGITLVRGADYYYNYDMDVWGQGTTVTVSS
VL: not shown
notes: Purified from hybridoma of Harbour H2L2 mice: human variable regions, rat constant regions
B2: chimeric anti-PD-1 antibody 223G6B5 (antibody, V domains shown)
VH: QVQLQESGPGLVKPSETLSLTCAVSGHSIRGSYFWGWIRQPPGRGLEWIGSIYHSGSTYTNPSLKSRATISVDTSKNQFSLKLNSVTAADTAVYYCARDLDIATTRDYWGQGTLVTVSS
VL: DIQLTQSPSFLSASVGDRVTIICRASQGINNYLAWYQQKPGKAPKLLIYAASTLQSGVPSRFSGSGSGTEFTLTISSLQPEDFATYYCQQLDSYPRTFGQGTKVEIKR
notes: as for B1
B3: chimeric anti-PD-1 antibody 226C3A7 (antibody, V domains shown)
VH: QVQLQQSGPGLVNPSQTLSLTCAISGDSVSSNSGAWNWIRQSPSRGLEWLGRTYYRSKWYNDYGISVQSRITINPDTSKNHFSLQLNSVTPEDTAVYYCARDPYYYGSGSYFDYWGQGTLVTVSS
VL: EIVMTQSPATLSVSPGERVTLSCRASLSVNSNLAWYQQKPGQAPRLLIYDTSTRATGVPARFSGSGSGTEFTLTISSLQSEDFAVYYCQQYHYWPLTFGGGTKVEIK
notes: as for B1
B4: fully human anti-PD-1 antibody 223G6B5 (antibody, human IgG4, V domains shown)
VH: QVQLQESGPGLVKPSETLSLTCAVSGHSIRGSYFWGWIRQPPGRGLEWIGSIYHSGSTYTNPSLKSRATISVDTSKNQFSLKLNSVTAADTAVYYCARDLDIATTRDYWGQGTLVTVSS
VL: DIQLTQSPSFLSASVGDRVTIICRASQGINNYLAWYQQKPGKAPKLLIYAASTLQSGVPSRFSGSGSGTEFTLTISSLQPEDFATYYCQQLDSYPRTFGQGTKVEIKR

Assays:
[1] = target: T1, human PD-1^ECD-hFc protein (Immunogen A) (human, UniProt Q15116 25-167); assay: ELISA, coated human PD-1ECD-hFc; antibody 1 nM
T1 construct: Biotinylated for the Octet assay; also called PD-1-hFc; hPD-1^ECD-hFc; not shown: human IgG Fc fragment (hFc)
T1 sequence (Q15116 25-167): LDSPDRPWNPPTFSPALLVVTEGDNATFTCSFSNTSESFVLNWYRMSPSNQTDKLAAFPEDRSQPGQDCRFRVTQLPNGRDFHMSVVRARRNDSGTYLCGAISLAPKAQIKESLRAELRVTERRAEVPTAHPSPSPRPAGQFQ
Description: (§1) 100 uL of the diluted recombinant proteins were added to each well of 96-well plate. The plates were sealed with plastic film and incubated at 4° C. overnight. The plates were washed twice with wash buffer (PBS+0.01% (v/v) Tween20), and incubated with blocking buffer (PBS+0.01% (v/v) Tween20+1% (w/w) BSA) at room temperature for 2 hours. The blocking buffer was aspirated away, and 100 uL of purified anti-PD-1 antibodies were added to each well and incubated for 2 hours at 37° C. The plates were washed three times with wash buffer (PBS+0.01% (v/v) Tween20). HRP-conjugated secondary antibody (Sigma) was added to each well and incubated for 2 hours at 37° C. After the plates were washed three times with wash buffer, 100 uL TMB substrate was added to each well and incubated for 30 minutes at room temperature. 100 uL stop solution (0.1N HCl) was added to each well to stop the reaction. The absorbance at 450 nm was measured with an ELISA plate reader (384plus SpectraMax, Molecular Devices).

[2] = target: T1, human PD-1^ECD-hFc protein (Immunogen A); assay: ELISA, coated human PD-1ECD-hFc; antibody 10 nM
Description: as §1

[3] = target: T1, human PD-1^ECD-hFc protein (Immunogen A); assay: ELISA, coated human PD-1ECD-hFc; antibody 0.1 nM
Description: as §1

[4] = target: T1, human PD-1^ECD-hFc protein (Immunogen A); assay: ELISA, coated human PD-1ECD-hFc; antibody 100 nM
Description: as §1

[5] = target: T1, human PD-1^ECD-hFc protein (Immunogen A); assay: ELISA, coated human PD-1ECD-hFc; antibody 0.01 nM
Description: as §1

[6] = target: T2, full length human PD-1 on cells (human, UniProt Q15116 25-288); assay: flow cytometry, CHO-K1-hPD-1 cells; antibody 1 nM
T2 construct: Also used here for PD-1 on human T cells/PBMC; also called CHO-K1-hPD-1; hPD-1
T2 sequence (Q15116 25-288 limits assumed): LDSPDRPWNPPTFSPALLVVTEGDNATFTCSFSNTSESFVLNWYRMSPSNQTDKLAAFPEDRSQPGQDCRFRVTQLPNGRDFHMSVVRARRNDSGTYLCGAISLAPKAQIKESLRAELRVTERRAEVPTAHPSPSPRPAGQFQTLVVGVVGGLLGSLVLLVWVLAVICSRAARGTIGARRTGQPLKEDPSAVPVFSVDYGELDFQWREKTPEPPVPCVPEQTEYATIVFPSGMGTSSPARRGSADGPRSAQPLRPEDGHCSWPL
Excerpt: (§2) CHO-K1 cells were stably transfected with pIRES plasmid containing the nucleic acid sequence encoding full length human PD-1 (see Example 2, step 2) to generate CHO-K1 cells stably expressing human PD-1 (herein referred to as CHO-K1-hPD-1 cells). Other CHO-K1 were stably transfected with pIRES plasmid containing the nucleic acid sequence encoding full length cyno PD-1 to generate CHO-K1 cells stably expressing cyno PD-1 (herein referred to as CHO-K1-cPD-1 cells). CHO-K1-hPD-1 and CHO-K1-cPD-1 cells were cultured and expanded in T-75 culture flasks to 90% confluence. The culture media was aspirated, and the cells were washed twice with HBSS (Hanks Balanced Salt Solution, Invitrogen). The cells were treated with enzyme-free cell dissociation solution (Versene solution, Invitrogen) and collected. The cells were then washed twice with HBSS, cell counts were determined, and cells were resuspended with HBSS at 2×10⁶ cells/mL. Goat serum was added to the cell suspension to a final concentration of 1%, and the cells were blocked for 30 minutes on ice and then washed twice with HBSS. The cells were collected after centrifugation and resuspended in FACS buffer (HBSS+1% BSA, v/v) at 2×10⁶ cells/mL. 100 uL of the cell suspension were then added to each well of 96-well plate. 100 uL of purified anti-PD-1 antibodies from Example 2 were added to each well of the 96-well plate and incubated for 2 hours on ice. […] The samples were washed three times with FACS buffer, and 100 uL fixation buffer (4% paraformaldehyde v/v) were added to each well and incubated for 10 minutes. The cells were then washed twice with FACS buffer and resuspended in 100 uL FACS buffer. The mean fluorescence intensity (MFI) was determined using FACS Calibur (BD), and the results are shown in FIGS. 7-8 and in Tables 10-11.

[7] = target: T1, human PD-1^ECD-hFc protein (Immunogen A); assay: ELISA, coated human PD-1ECD-hFc; antibody 0.001 nM
Description: as §1

[8] = target: T2, full length human PD-1 on cells; assay: flow cytometry, CHO-K1-hPD-1 cells; antibody 10 nM
Excerpt: as §2

[9] = target: T1, human PD-1^ECD-hFc protein (Immunogen A); assay: ELISA, coated human PD-1ECD-hFc; antibody 0.0001 nM
Description: as §1

[10] = target: T2, full length human PD-1 on cells; assay: flow cytometry, CHO-K1-hPD-1 cells; antibody 0.1 nM
Excerpt: as §2

[11] = target: T2, full length human PD-1 on cells; assay: flow cytometry, CHO-K1-hPD-1 cells; antibody 100 nM
Excerpt: as §2

[12] = target: T1, human PD-1^ECD-hFc protein (Immunogen A); assay: ELISA, coated human PD-1ECD-hFc; antibody 0.00001 nM
Description: as §1

[13] = target: T2, full length human PD-1 on cells; assay: flow cytometry, CHO-K1-hPD-1 cells; antibody 3.16 nM
Excerpt: as §2

[14] = target: T2, full length human PD-1 on cells; assay: flow cytometry, CHO-K1-hPD-1 cells; antibody 31.6 nM
Excerpt: as §2

[15] = target: T2, full length human PD-1 on cells; assay: flow cytometry, CHO-K1-hPD-1 cells; antibody 0.316 nM
Excerpt: as §2

[16] = target: T2, full length human PD-1 on cells; assay: flow cytometry, CHO-K1-hPD-1 cells; antibody 0.0316 nM
Excerpt: as §2

CD28 [17] = target: T3, CD28 (human, UniProt P10747 19-152); assay: ELISA on coated protein (Table 9)
Description: as §1
T3 sequence (P10747 19-152 limits assumed): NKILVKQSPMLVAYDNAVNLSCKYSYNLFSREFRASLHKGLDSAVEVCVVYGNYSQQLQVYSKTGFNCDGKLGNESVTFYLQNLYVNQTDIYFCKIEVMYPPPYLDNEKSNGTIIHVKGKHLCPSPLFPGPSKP

B7-1 = target: T4, B7-1 (human, UniProt P33681 35-242); assay: ELISA on coated protein (Table 9)
T4 sequence (looked up): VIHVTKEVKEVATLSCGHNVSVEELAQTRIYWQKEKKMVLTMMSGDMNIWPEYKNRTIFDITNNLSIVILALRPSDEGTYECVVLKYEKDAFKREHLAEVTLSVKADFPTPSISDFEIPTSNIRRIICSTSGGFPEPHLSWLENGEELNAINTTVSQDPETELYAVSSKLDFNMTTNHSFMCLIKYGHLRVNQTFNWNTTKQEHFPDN
Description: as §1

ICOS [18] = target: T5, ICOS (human, UniProt Q9Y6W8 21-140, limits assumed); assay: ELISA on coated protein (Table 9)
T5 sequence (looked up): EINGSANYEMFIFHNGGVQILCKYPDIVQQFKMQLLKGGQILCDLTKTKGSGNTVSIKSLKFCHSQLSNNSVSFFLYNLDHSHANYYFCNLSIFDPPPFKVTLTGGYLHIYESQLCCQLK
Description: as §1

CTLA4 [19] = target: T6, CTLA4 (human, UniProt P16410 37-162, limits assumed); assay: ELISA on coated protein (Table 9)
T6 sequence (looked up): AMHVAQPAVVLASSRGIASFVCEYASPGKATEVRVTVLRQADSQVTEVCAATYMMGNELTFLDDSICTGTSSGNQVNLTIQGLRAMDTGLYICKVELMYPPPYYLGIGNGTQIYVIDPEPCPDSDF
Description: as §1

[20] = target: T7, cyno PD-1^ECD-hFc protein (cyno monkey, UniProt B0LAJ3 25-167); assay: ELISA, coated cyno PD-1ECD-hFc; antibody 1 nM
T7 construct: Prepared by the method for Immunogen A; also called Cyno Monkey PD-1^ECD-hFc; cyno monkey PD-1-hFc; not shown: human IgG Fc fragment (hFc) and its junction to the ECD
T7 sequence (B0LAJ3 entry or part of it limits assumed): as the sequence (Q15116 25-167) above, with D2E, P10A, V19L, T35A, Q75R counted along it
Description: as §1

[21] = target: T7, cyno PD-1^ECD-hFc protein; assay: ELISA, coated cyno PD-1ECD-hFc; antibody 10 nM
Description: as §1

[22] = target: T7, cyno PD-1^ECD-hFc protein; assay: ELISA, coated cyno PD-1ECD-hFc; antibody 0.1 nM
Description: as §1

[23] = target: T7, cyno PD-1^ECD-hFc protein; assay: ELISA, coated cyno PD-1ECD-hFc; antibody 100 nM
Description: as §1

[24] = target: T7, cyno PD-1^ECD-hFc protein; assay: ELISA, coated cyno PD-1ECD-hFc; antibody 0.01 nM
Description: as §1

CD28 [25] = target: T3, CD28; assay: ELISA, coated protein 1 ug/mL; antibody concentration not stated
Description: as §1

ICOS [26] = target: T5, ICOS; assay: as above
Description: as §1

CTLA4 [27] = target: T6, CTLA4; assay: as above
Description: as §1

[28] = target: T8, cyno monkey PD-1^ECD-hFc protein (cyno monkey, UniProt B0LAJ3 25-167); assay: ELISA, coated cyno PD-1ECD-hFc
T8 construct: also called cyno PD-1^ECD-hFc; not shown: human IgG Fc fragment (hFc) and its junction to the ECD
T8 sequence (B0LAJ3 entry or part of it limits assumed): as the sequence (Q15116 25-167) above, with D2E, P10A, V19L, T35A, Q75R counted along it

CD28 [29] = target: CD28 (human, UniProt P10747 19-152); assay: ELISA, coated protein, antibody concentration not given
Target sequence in this assay (P10747 19-152 limits assumed): as the sequence (P10747 19-152 limits assumed) above

B7.1 = target: T9, B7.1 (human, UniProt P33681 35-242); assay: as above
T9 sequence (looked up): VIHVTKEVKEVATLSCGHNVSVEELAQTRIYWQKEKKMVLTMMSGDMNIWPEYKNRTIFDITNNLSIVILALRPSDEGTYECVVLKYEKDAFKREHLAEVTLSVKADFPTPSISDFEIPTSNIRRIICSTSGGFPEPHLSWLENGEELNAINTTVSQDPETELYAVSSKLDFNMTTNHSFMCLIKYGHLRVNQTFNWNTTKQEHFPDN

ICOS [30] = target: T10, ICOS (human, UniProt Q9Y6W8 21-140, limits assumed); assay: as above
T10 sequence (looked up): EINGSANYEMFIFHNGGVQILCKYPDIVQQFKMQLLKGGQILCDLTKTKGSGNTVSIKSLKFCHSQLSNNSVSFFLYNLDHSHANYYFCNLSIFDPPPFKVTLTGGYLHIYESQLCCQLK

CTLA4 [31] = target: T11, CTLA4 (human, UniProt P16410 37-162, limits assumed); assay: as above
T11 sequence (looked up): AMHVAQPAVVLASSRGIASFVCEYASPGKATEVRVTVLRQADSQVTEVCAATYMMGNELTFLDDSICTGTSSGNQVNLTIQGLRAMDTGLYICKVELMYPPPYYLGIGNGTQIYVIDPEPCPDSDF

Row | Binder | OD450 nm [1] | OD450 nm [2] | OD450 nm [3] | OD450 nm [4] | OD450 nm [5] | Mean fluorescence intensity [6] | OD450 nm [7] | Mean fluorescence intensity [8] | OD450 nm [9] | Mean fluorescence intensity [10] | Mean fluorescence intensity [11] | OD450 nm [12] | Mean fluorescence intensity [13] | Mean fluorescence intensity [14] | Mean fluorescence intensity [15] | Mean fluorescence intensity [16] | other results
1 | B1 | 2.87 | 2.84 | 2.13 | 2.77 | 0.68 | 5 | 0.48 | 160 | 0.43 | 2.9 | 1490 | 0.43 | 21.4 | 986 | 3 | 3 | 
2 | B2 |  |  |  |  |  |  |  |  |  |  |  |  |  |  |  |  | binding result (CD28 [17]): no binding; binding result (B7-1): no binding; binding result (ICOS [18]): no binding; binding result (CTLA4 [19]): no binding; OD450 nm [20]: 2.61; OD450 nm [21]: 2.74; OD450 nm [22]: 1.28; OD450 nm [23]: 2.7; OD450 nm [24]: 0.342; OD450 nm (CD28 [25]): 0.166; OD450 nm (ICOS [26]): 0.14; OD450 nm (CTLA4 [27]): 0.106
3 | B3 | 2.86 | 2.86 | 2.54 | 2.83 | 0.9 | 5.2 | 0.45 | 203 | 0.4 | 3.2 | 825 | 0.39 | 22.9 | 826 | 3.4 | 4.1 | 
4 | B4 |  |  |  |  |  |  |  |  |  |  |  |  |  |  |  |  | OD450 nm at 0 nM [28]: 0.31 OD450; OD450 nm at 0.001 nM [28]: 0.33 OD450; OD450 nm at 0.01 nM [28]: 0.83 OD450; OD450 nm at 0.1 nM [28]: 2.5 OD450; OD450 nm at 1 nM [28]: 2.88 OD450; OD450 nm at 100 nM [28]: 2.85 OD450; OD450 nm (CD28 [29]): 0.05 OD450; OD450 nm (B7.1): 0.25 OD450; OD450 nm (ICOS [30]): 0.12 OD450; OD450 nm (CTLA4 [31]): 0.13 OD450
